Measurements as given in patent US20170355777A1 (UNIVERSITY OF LEICESTER, published 2017).
Where a chain is given by its changes, count along the chain named.

T1: recombinant MLP (rMLP) C-terminal fusion protein: N-terminal histidine tag fused to residues 279-431 of human … (human)
T1 construct: Expressed in E. coli from pRSETB and purified on a nickel column; ran at 28 kDa; also called rMLP C-terminal protein; recombinant MLP C-terminal protein
T1 chain: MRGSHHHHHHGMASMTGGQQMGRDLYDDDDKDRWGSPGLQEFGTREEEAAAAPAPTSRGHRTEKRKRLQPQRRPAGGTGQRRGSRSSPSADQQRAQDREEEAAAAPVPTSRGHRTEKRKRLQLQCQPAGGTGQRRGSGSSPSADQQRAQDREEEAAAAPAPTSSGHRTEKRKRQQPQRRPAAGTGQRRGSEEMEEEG

B1: anti-MLP monoclonal antibody αMLP Clone B (hybridoma ATCC PTA-121700) (antibody, IgG2a, V domains shown)
VH: EVQLQQSGPELVKPGASVKISCKASGYSFTGFYIHWVKQSHVKSLEWIGRIHPYNGAPTYNQNFKDRARLTVHESSSTAYMEFFGLTSEDSAVYYCARERVYYYGSTYEFDFWGQGTTLTVSS
VL: DVLMTQTPLSLPVSLGDQASISCRSGQSIVHSSGVTYLSWYLQKPGQSPKLLIYKVFYRFSGVPDRFSGSGSGTDFTLKISRVEAEDLGVYYCFQGSHVPPTFGTGTKLELK
notes: also called mAb clone B
B2: anti-MLP monoclonal antibody αMLP Clone 11 (hybridoma ATCC PTA-121699) (antibody, IgG2b, V domains shown)
VH: B1 VH with S28A, V37M, P58T, T59S, R69S, H73D, F84Y, F112S
VL: B1 VL with S32T, A85S, T105A
notes: also called mAb clone 11
B3: anti-MLP monoclonal antibody αMLP Clone C (hybridoma ATCC PTA-121701) (antibody, IgG1, V domains shown)
VH: DVKLQESGGGLVQPGGSMKLSCVASGFTFSNYWMNWVRQSPEKGLEWVAEIRLKSNNYAINYAESVKGRFTISRDDSKSSVYLDMNNLRAEDTGIYYCTSYYGSSLYYLDYWGQGTTLTVSS
VL: QIVLTQSPVIMSASPGEKVTISCSASSSVSNMYWYQQKPGSSPKAWIYRTSNLASGVPARFSGSGSGTSYSLTISSMEAEDAATYYCHQYQSYPRTFGAGTKLEIK
notes: also called 2(C); mAb clone C

Target: T1, recombinant MLP (rMLP) C-terminal …
Test: KD (binding to rMLP); method not described at the table

B1 and B2 cannot be ordered by Kd: < 1 nM for the first, 0.2 nM for the second.

For B3, the Kd was < 1 nM.
